{"source": "ChEMBL document CHEMBL1212811", "about": "“Chemical phylogenetics of histone deacetylases” (Nat Chem Biol, 2010)", "proteins": {"B1": {"name": "Protein deacetylase HDAC6 (Homo sapiens), Q9UBN7 (protein)", "chain": "MTSTGQDSTTTRQRRSRQNPQSPPQDSSVTSKRNIKKGAVPRSIPNLAEVKKKGKMKKLGQAMEEDLIVGLQGMDLNLEAEALAGTGLVLDEQLNEFHCLWDDSFPEGPERLHAIKEQLIQEGLLDRCVSFQARFAEKEELMLVHSLEYIDLMETTQYMNEGELRVLADTYDSVYLHPNSYSCACLASGSVLRLVDAVLGAEIRNGMAIIRPPGHHAQHSLMDGYCMFNHVAVAARYAQQKHRIRRVLIVDWDVHHGQGTQFTFDQDPSVLYFSIHRYEQGRFWPHLKASNWSTTGFGQGQGYTINVPWNQVGMRDADYIAAFLHVLLPVALEFQPQLVLVAAGFDALQGDPKGEMAATPAGFAQLTHLLMGLAGGKLILSLEGGYNLRALAEGVSASLHTLLGDPCPMLESPGAPCRSAQASVSCALEALEPFWEVLVRSTETVERDNMEEDNVEESEEEGPWEPPVLPILTWPVLQSRTGLVYDQNMMNHCNLWDSHHPEVPQRILRIMCRLEELGLAGRCLTLTPRPATEAELLTCHSAEYVGHLRATEKMKTRELHRESSNFDSIYICPSTFACAQLATGAACRLVEAVLSGEVLNGAAVVRPPGHHAEQDAACGFCFFNSVAVAARHAQTISGHALRILIVDWDVHHGNGTQHMFEDDPSVLYVSLHRYDHGTFFPMGDEGASSQIGRAAGTGFTVNVAWNGPRMGDADYLAAWHRLVLPIAYEFNPELVLVSAGFDAARGDPLGGCQVSPEGYAHLTHLLMGLASGRIILILEGGYNLTSISESMAACTRSLLGDPPPLLTLPRPPLSGALASITETIQVHRRYWRSLRVMKVEDREGPSSSKLVTKKAPQPAKPRLAERMTTREKKVLEAGMGKVTSASFGEESTPGQTNSETAVVALTQDQPSEAATGGATLAQTISEAAIGGAMLGQTTSEEAVGGATPDQTTSEETVGGAILDQTTSEDAVGGATLGQTTSEEAVGGATLAQTTSEAAMEGATLDQTTSEEAPGGTELIQTPLASSTDHQTPPTSPVQGTTPQISPSTLIGSLRTLELGSESQGASESQAPGEENLLGEAAGGQDMADSMLMQGSRGLTDQAIFYAVTPLPWCPHLVAVCPIPAAGLDVTQPCGDCGTIQENWVCLSCYQVYCGRYINGHMLQHHGNSGHPLVLSYIDLSAWCYYCQAYVHHQALLDVKNIAHQNKFGEDMPHPH"}, "B2": {"name": "Histone deacetylase 8 (Homo sapiens), Q9BY41 (protein)", "chain": "MEEPEEPADSGQSLVPVYIYSPEYVSMCDSLAKIPKRASMVHSLIEAYALHKQMRIVKPKVASMEEMATFHTDAYLQHLQKVSQEGDDDHPDSIEYGLGYDCPATEGIFDYAAAIGGATITAAQCLIDGMCKVAINWSGGWHHAKKDEASGFCYLNDAVLGILRLRRKFERILYVDLDLHHGDGVEDAFSFTSKVMTVSLHKFSPGFFPGTGDVSDVGLGKGRYYSVNVPIQDGIQDEKYYQICESVLKEVYQAFNPKAVVLQLGADTIAGDPMCSFNMTPVGIGKCLKYILQWQLATLILGGGGYNLANTARCWTYLTGVILGKTLSSEIPDHEFFTAYGPDYVLEITPSCRPDRNEPHRIQQILNYIKGNLKHVV"}, "B3": {"name": "Histone deacetylase 4 (Homo sapiens), P56524 (protein)", "chain": "MSSQSHPDGLSGRDQPVELLNPARVNHMPSTVDVATALPLQVAPSAVPMDLRLDHQFSLPVAEPALREQQLQQELLALKQKQQIQRQILIAEFQRQHEQLSRQHEAQLHEHIKQQQEMLAMKHQQELLEHQRKLERHRQEQELEKQHREQKLQQLKNKEKGKESAVASTEVKMKLQEFVLNKKKALAHRNLNHCISSDPRYWYGKTQHSSLDQSSPPQSGVSTSYNHPVLGMYDAKDDFPLRKTASEPNLKLRSRLKQKVAERRSSPLLRRKDGPVVTALKKRPLDVTDSACSSAPGSGPSSPNNSSGSVSAENGIAPAVPSIPAETSLAHRLVAREGSAAPLPLYTSPSLPNITLGLPATGPSAGTAGQQDAERLTLPALQQRLSLFPGTHLTPYLSTSPLERDGGAAHSPLLQHMVLLEQPPAQAPLVTGLGALPLHAQSLVGADRVSPSIHKLRQHRPLGRTQSAPLPQNAQALQHLVIQQQHQQFLEKHKQQFQQQQLQMNKIIPKPSEPARQPESHPEETEEELREHQALLDEPYLDRLPGQKEAHAQAGVQVKQEPIESDEEEAEPPREVEPGQRQPSEQELLFRQQALLLEQQRIHQLRNYQASMEAAGIPVSFGGHRPLSRAQSSPASATFPVSVQEPPTKPRFTTGLVYDTLMLKHQCTCGSSSSHPEHAGRIQSIWSRLQETGLRGKCECIRGRKATLEELQTVHSEAHTLLYGTNPLNRQKLDSKKLLGSLASVFVRLPCGGVGVDSDTIWNEVHSAGAARLAVGCVVELVFKVATGELKNGFAVVRPPGHHAEESTPMGFCYFNSVAVAAKLLQQRLSVSKILIVDWDVHHGNGTQQAFYSDPSVLYMSLHRYDDGNFFPGSGAPDEVGTGPGVGFNVNMAFTGGLDPPMGDAEYLAAFRTVVMPIASEFAPDVVLVSSGFDAVEGHPTPLGGYNLSARCFGYLTKQLMGLAGGRIVLALEGGHDLTAICDASEACVSALLGNELDPLPEKVLQQRPNANAVRSMEKVMEIHSKYWRCLQRTTSTAGRSLIEAQTCENEEAETVTAMASLSVGVKPAEKRPDEEPMEEEPPL"}, "B4": {"name": "Histone deacetylase 3 (Homo sapiens), O15379 (protein)", "chain": "MAKTVAYFYDPDVGNFHYGAGHPMKPHRLALTHSLVLHYGLYKKMIVFKPYQASQHDMCRFHSEDYIDFLQRVSPTNMQGFTKSLNAFNVGDDCPVFPGLFEFCSRYTGASLQGATQLNNKICDIAINWAGGLHHAKKFEASGFCYVNDIVIGILELLKYHPRVLYIDIDIHHGDGVQEAFYLTDRVMTVSFHKYGNYFFPGTGDMYEVGAESGRYYCLNVPLRDGIDDQSYKHLFQPVINQVVDFYQPTCIVLQCGADSLGCDRLGCFNLSIRGHGECVEYVKSFNIPLLVLGGGGYTVRNVARCWTYETSLLVEEAISEELPYSEYFEYFAPDFTLHPDVSTRIENQNSRQYLDQIRQTIFENLKMLNHAPSVQIHDVPADLLTYDRTDEADAEERGPEENYSRPEAPNEFYDGDHDNDKESDVEI"}, "B5": {"name": "Histone deacetylase 7 (Homo sapiens), Q8WUI4 (protein)", "chain": "MDLRVGQRPPVEPPPEPTLLALQRPQRLHHHLFLAGLQQQRSVEPMRLSMDTPMPELQVGPQEQELRQLLHKDKSKRSAVASSVVKQKLAEVILKKQQAALERTVHPNSPGIPYRTLEPLETEGATRSMLSSFLPPVPSLPSDPPEHFPLRKTVSEPNLKLRYKPKKSLERRKNPLLRKESAPPSLRRRPAETLGDSSPSSSSTPASGCSSPNDSEHGPNPILGSEALLGQRLRLQETSVAPFALPTVSLLPAITLGLPAPARADSDRRTHPTLGPRGPILGSPHTPLFLPHGLEPEAGGTLPSRLQPILLLDPSGSHAPLLTVPGLGPLPFHFAQSLMTTERLSGSGLHWPLSRTRSEPLPPSATAPPPPGPMQPRLEQLKTHVQVIKRSAKPSEKPRLRQIPSAEDLETDGGGPGQVVDDGLEHRELGHGQPEARGPAPLQQHPQVLLWEQQRLAGRLPRGSTGDTVLLPLAQGGHRPLSRAQSSPAAPASLSAPEPASQARVLSSSETPARTLPFTTGLIYDSVMLKHQCSCGDNSRHPEHAGRIQSIWSRLQERGLRSQCECLRGRKASLEELQSVHSERHVLLYGTNPLSRLKLDNGKLAGLLAQRMFVMLPCGGVGVDTDTIWNELHSSNAARWAAGSVTDLAFKVASRELKNGFAVVRPPGHHADHSTAMGFCFFNSVAIACRQLQQQSKASKILIVDWDVHHGNGTQQTFYQDPSVLYISLHRHDDGNFFPGSGAVDEVGAGSGEGFNVNVAWAGGLDPPMGDPEYLAAFRIVVMPIAREFSPDLVLVSAGFDAAEGHPAPLGGYHVSAKCFGYMTQQLMNLAGGAVVLALEGGHDLTAICDASEACVAALLGNRVDPLSEEGWKQKPNLNAIRSLEAVIRVHSKYWGCMQRLASCPDSWVPRVPGADKEEVEAVTALASLSVGILAEDRPSEQLVEEEEPMNL"}, "B6": {"name": "Histone deacetylase 9 (Homo sapiens), Q9UKV0 (protein)", "chain": "MHSMISSVDVKSEVPVGLEPISPLDLRTDLRMMMPVVDPVVREKQLQQELLLIQQQQQIQKQLLIAEFQKQHENLTRQHQAQLQEHIKELLAIKQQQELLEKEQKLEQQRQEQEVERHRREQQLPPLRGKDRGRERAVASTEVKQKLQEFLLSKSATKDTPTNGKNHSVSRHPKLWYTAAHHTSLDQSSPPLSGTSPSYKYTLPGAQDAKDDFPLRKTASEPNLKVRSRLKQKVAERRSSPLLRRKDGNVVTSFKKRMFEVTESSVSSSSPGSGPSSPNNGPTGSVTENETSVLPPTPHAEQMVSQQRILIHEDSMNLLSLYTSPSLPNITLGLPAVPSQLNASNSLKEKQKCETQTLRQGVPLPGQYGGSIPASSSHPHVTLEGKPPNSSHQALLQHLLLKEQMRQQKLLVAGGVPLHPQSPLATKERISPGIRGTHKLPRHRPLNRTQSAPLPQSTLAQLVIQQQHQQFLEKQKQYQQQIHMNKLLSKSIEQLKQPGSHLEEAEEELQGDQAMQEDRAPSSGNSTRSDSSACVDDTLGQVGAVKVKEEPVDSDEDAQIQEMESGEQAAFMQQPFLEPTHTRALSVRQAPLAAVGMDGLEKHRLVSRTHSSPAASVLPHPAMDRPLQPGSATGIAYDPLMLKHQCVCGNSTTHPEHAGRIQSIWSRLQETGLLNKCERIQGRKASLEEIQLVHSEHHSLLYGTNPLDGQKLDPRILLGDDSQKFFSSLPCGGLGVDSDTIWNELHSSGAARMAVGCVIELASKVASGELKNGFAVVRPPGHHAEESTAMGFCFFNSVAITAKYLRDQLNISKILIVDLDVHHGNGTQQAFYADPSILYISLHRYDEGNFFPGSGAPNEVGTGLGEGYNINIAWTGGLDPPMGDVEYLEAFRTIVKPVAKEFDPDMVLVSAGFDALEGHTPPLGGYKVTAKCFGHLTKQLMTLADGRVVLALEGGHDLTAICDASEACVNALLGNELEPLAEDILHQSPNMNAVISLQKIIEIQSMSLKFS"}}, "key": {"[1]": {"substrate": "CC(=O)NCCCC[C@H](NC(=O)CNC(=O)[C@H](CC(C)C)NC(C)=O)C(=O)Nc1ccc2c(C)cc(=O)oc2c1", "settings": "10 uM"}, "[2]": {"substrate": "CC(=O)N[C@@H](CC(C)C)C(=O)NCC(=O)N[C@@H](CCCCNC(=O)C(F)(F)F)C(=O)Nc1ccc2c(C)cc(=O)oc2c1", "experiment": "Activity of HDAC8 at 10 uM"}, "[3]": {"substrate": "CC(=O)N[C@@H](CC(C)C)C(=O)NCC(=O)N[C@@H](CCCCNC(=O)C(F)(F)F)C(=O)Nc1ccc2c(C)cc(=O)oc2c1", "experiment": "Activity of HDAC4 at 10 uM"}, "[4]": {"substrate": "CC(=O)NCCCC[C@H](NC(=O)CNC(=O)[C@H](CC(C)C)NC(C)=O)C(=O)Nc1ccc2c(C)cc(=O)oc2c1", "settings": "10 uM", "remark": "listed apart in the source"}, "[5]": {"substrate": "CC(=O)N[C@@H](CC(C)C)C(=O)NCC(=O)N[C@@H](CCCCNC(=O)C(F)(F)F)C(=O)Nc1ccc2c(C)cc(=O)oc2c1", "experiment": "Activity of HDAC7 at 10 uM"}, "[6]": {"substrate": "CC(=O)N[C@@H](CC(C)C)C(=O)NCC(=O)N[C@@H](CCCCNC(=O)C(F)(F)F)C(=O)Nc1ccc2c(C)cc(=O)oc2c1", "experiment": "Activity of HDAC9 at 10 uM"}}, "data": [{"protein": "B1", "values": [{"measurement": "Km", "setting": "[1]", "result": 16, "unit": "µM"}]}, {"protein": "B2", "values": [{"measurement": "Km", "setting": "[2]", "result": 190, "unit": "µM"}]}, {"protein": "B3", "values": [{"measurement": "Km", "setting": "[3]", "result": 10.3, "unit": "µM"}]}, {"protein": "B4", "values": [{"measurement": "Km", "setting": "[4]", "result": 6, "unit": "µM"}]}, {"protein": "B5", "values": [{"measurement": "Km", "setting": "[5]", "result": 19.8, "unit": "µM"}]}, {"protein": "B6", "values": [{"measurement": "Km", "setting": "[6]", "result": 37, "unit": "µM"}]}]}
